Test results published in patent US11787850B2, “Peptidic TGF-beta antagonists” (priority 2015, dated 2023).

Legend:
[1] = Size-exclusion chromatography on Superdex Peptide 10/300GL column; assay type: physicochemical; conditions: for formation of aggregates by size-exclusion chromatography: peptide in PBS, Superdex Peptide 10/300GL, 0.6 ml/min; for Aggregation?: size-exclusion chromatography, peptide dissolved in PBS
Protocol: Approximately 200 μg of each peptide X (40 amino acids), X-1 (28 amino acids), peptide A (161 amino acids), P11 (11 amino acids), P16 (16 amino acids), P21 (21 amino acids, P16-2 (16 amino acids, scrambled sequence control), X-3 (16 amino acids) and X-4 (11 amino acids) were dissolved in phosphate-buffered saline (PBS) and loaded onto a Superdex Peptide 10/300GL column. The column was eluted with PBS at a flow rate of 0.6 mL/min and eluents were analyzed for peptide content by measuring relative absorbance at a wavelength of 215 nm. (FIGS. 3A and 3B) The data is plotted with relative absorbance (Y-axis) against elution volume (X-axis). Peptides 1-9 are color coded (A—peptides (1) to (5); B (peptides (6) to (9)). As shown on panel A, peptide X (peptide 1, black line) elution profile indicated two major peaks at approximately 8 mL and 11 mL which correspond to molecular weights greater than 12.4 kDa. The theoretical molecular weight of peptide X is 4.7 kDa which is expected to elute from the column at approximately 15 mL. Under the conditions tested, peptide X existed as high molecular weight aggregates with minimal soluble (monomeric) form. On the other hand, P16 (peptide 5, green line) elution profile indicated a broad peak between 14-22 mL which is expected to contain peptides of between 0.1 and 6 kDa and is consistent with its theoretical molecular weight of 2.01 kDa.
FIG. 4 illustrates the standard curve used for size-exclusion chromatography of standard peptides using the Superdex Peptide 10/300 GL column (results provided in FIG. 3). A pool of standard peptides of various molecular weights (1. cytochrome c (Mr 12.384 kDa) 1 mg/mL; 2. aprotinin (Mr 6.512 kDa) 2 mg/mL; 3. vitamin B12 (Mr 1.355 kDa) 0.1 mg/mL; 4. (Gly)3 (Mr 0.189 kDa) 0.1 mg/mL; 5. Gly (Mr 0.075 kDa) 7.8 mg/mL) were subjected to size-exclusion chromatography using the Superdex Peptide 10/300 GL column (flow rate 0.5 ml/min at room temperature, sample volume of 50 μL, eluent 0.05M phosphate, 0.15 M NaCl, ph 7.0). The resulting chromatogram (absorbance at 215 nm (in mAU, left Y axis) and conductivity (in mS/cm, right Y axis, in function of volume of elution (in mL)) indicates the elution profiles of the above peptides with high MW peptides eluting in earlier fractions and lower MW peptides eluting in later fractions as expected. The molecular weights of peptides were plotted against elution volume generating a standard curve (not shown).
More specifically, approximately […] of each peptide X (40 amino acids), X-1 (28 amino acids), peptide A (161 amino acids), P11 (11 amino acids), P16 (16 amino acids), P21 (21 amino acids, P16-2 (16 amino acids, scrambled sequence control), X-3 (16 amino acids) and X-4 (11 amino acids) were dissolved in phosphate-buffered saline (PBS) and loaded onto a Superdex Peptide 10/300GL column. The column was eluted with PBS at a flow rate of 0.6 ml/min and eluants were analyzed for peptide content by measuring relative absorbance at a wavelength of 215 nm. The data were plotted with relative absorbance (Y-axis) against elution volume (X-axis). […] The theoretical molecular weight of peptide X is 4.7 kDa which is expected to elute from the column at approximately 15 mL. […] P16 (peptide 5) elution profile indicated a peak between 14-22 mL which was expected to contain peptides of between 0.1 and 6 kDa and is consistent with its theoretical molecular weight of 2.01 kDa.
More specifically, a pool of standard proteins of various molecular weights were subjected to size-exclusion chromatography using the Superdex Peptide 10/300 GL column. The resulting chromatogram indicated the elution profiles of the peptides with high molecular weight peptides eluting in earlier fractions and lower molecular weight peptides eluting in later fractions as expected. The molecular weights of peptides were plotted against elution volume generating a standard curve (not shown) and was used to calculate molecular weights of the CD109-based peptides. […]

[2] = tested on: TGF-β1-induced Smad3-driven (CAGA12-lux) transcriptional activity; assay: Luciferase reporter assay in HEK293-(CAGA)12 cells; assay type: cell-based
[3] = tested on: TGF-β1-induced Smad3-driven (CAGA12-lux) transcriptional activity; assay: Luciferase reporter assay in HEK293-(CAGA)12 cells; assay type: cell-based; conditions: 100 pM TGF-β1, 18 hours
Protocol: FIGS. 5A and 5B illustrate that some small molecular weight CD109-based peptides (Peptide A, P28, P21 and […]) inhibit TGF-β1-induced Smad3-driven transcriptional activity. […] Cell lysates were analyzed for luciferase activity and data are expressed as mean±standard deviation of relative light units (RLU). […] Under the conditions tested, peptide A, P28, P21 and P16 inhibited TGF-β1-induced transcriptional (CAGA12-lux) activity.
FIG. 6 illustrates that the small molecular weight CD109-based peptide P16 (but not P16-2, P11 or X-4) inhibit TGF-β1-induced Smad3-driven transcriptional activity. HEK293 cells stably transfected with the Smad3-responsive CAGA12-lux luciferase reporter were treated for 18 hours without (−) or with (+) […] TGF-β1 in the presence or absence of 10 nM of P16-2 (16 aa scrambled control), P11 (11 aa sequence), P16 (16 aa), X-4 (11 aa) or Tris-buffer (buffer control) as indicated. Cell lysates were analyzed for luciferase activity and data are expressed as mean±standard deviation of luciferase activity. Results are shown as luciferase activity for the peptides used.
FIG. 8 illustrates that DMSO treatment enhances the TGF-β inhibitory activity of Peptide X but not P21 or P16. HEK293 cells stably transfected with the Smad3-responsive CAGA12-lux luciferase reporter were treated for 18 hours without (−) or with (+) 100 pM TGF-β1 in the presence or absence of Peptide X (PX), P21 or P16. The peptides were previously dissolved in Tris buffer and left untreated or treated with DMSO prior to addition to the cells. Addition of Tris buffer or DMSO alone served as additional controls. Cell lysates were analyzed for luciferase activity and data are expressed as mean±standard deviation of luciferase activity. Results are shown as luciferase activity. […] P16 and P21 inhibited TGF-β1-induced CAGA12-lux activity and these effects were not enhanced by DMSO treatment. […]
FIG. 25 is a graph showing the ability of CD109-based peptides to inhibit TGF-β-induced, Smad3-driven transcriptional activity. HEK293 cells stably transfected with the Smad3-responsive CAGA12-lux luciferase reporter were treated for 18 hours without (−) or with (+) 100 pM TGF-b1 in the presence or absence of 10 nM of P16, P16.2, peptide A, P15, P14, P13, P12, P11, peptide X, P21, or 2% NH4OH buffer (buffer control) as indicated. Cell lysates were analyzed for luciferase activity and data are expressed as mean±standard deviation of luciferase activity.
HEK293 cells stably transfected with the Smad3-responsive CAGA12-lux luciferase reporter construct were incubated with dimeric or monomeric forms of peptide A as indicated and treated with 100 pM TGF-b overnight. Cell lysates were analyzed for luciferase activity. Data are presented as fold-activation compared to TGF-b1 treatment alone (scaled to 1.0). M+D, mixture of monomer and dimer.
Luciferase reporter assays were performed using a HEK293-(CAGA)12 cell line that stably expresses a TGF-β/Smad3-responsive (CAGA)12-luciferase reporter gene [Cash et al. 2013]. HEK293-(CAGA)12 cells were grown in 24-well plates to 70-80% confluency and serum-starved overnight. Cells were washed with PBS and treated with or without TGF-β1 in presence or absence of various CD109-based peptides as indicated in the figure legends. Cells were then washed twice with cold PBS and solubilized in 100 μl of Passive Lysis Buffer (Promega) for 30 min at 4° C. The cell lysates were assayed for luciferase and β-galactosidase activities using commercially available kits (BD Biosciences).
HEK293 cells stably transfected with the Smad3-responsive CAGA12-lux luciferase reporter were treated for 18 hours without (−) or with (+) 100 pM TGF-β1 in the presence or absence of 10 nM (FIG. 5A) or 5 nM (FIG. 5B) of peptide A (Pep A, 161 aa), P28 (28 aa peptide), P21 (21 aa peptide), P16 (16 aa peptide), P16.2 scrambled peptide (16 aa, scrambled P16 sequence) or Tris-buffer (negative control for peptides) as indicated. […]

[4] = tested on: TGF-β1-induced PAI-1 protein production in A431 cells; assay: Western blot for PAI-1 in A431 cells; assay type: cell-based; conditions: 10 nM peptide, 100 pM TGF-β1, 24 hrs (FIG. 7)
Protocol: FIG. 7 illustrates that the small molecular weight CD109-based peptide P16 (but not P11 or P16-1) inhibits TGF-β1-induced PAI-protein production. A431 cells were treated without (lane 1) or with 100 pM of TGF-β1 (lanes 2-6) in the absence (lane 2) or presence of 10 nM of P11 (11 aa peptide, lane 3), P16 (16 aa peptide, lane 4), P16-1 (scrambled peptide of 16 aa, lane 5) or Tris buffer (buffer, lane 6) for 24 hrs. Cell lysates were analyzed by Western blot for PAI-1 ([…]) protein levels and normalized to GAPDH protein levels (loading control). In the conditions tested, P16 (but not P11) inhibited TGF-β1-induced PAI-1 expression.
A431 cells were treated for 18 hours without (−) or with (+) 100 pM TGF-β1 in the presence or absence of Peptide X or P16. The peptides were previously dissolved in Tris buffer and left untreated or treated with DMSO prior to addition to the cells. Cell lysates were analyzed by Western blot for PAI-1 (plasminogen activator inhibitor-1) protein expression (top panel) and GAPDH served as a loading control (bottom panel). PAI-1 was not detected in untreated cells (lane 1).
A431 cells were grown in 6-well plates to 70-80% confluency and serum-starved overnight. Cells were washed with PBS and treated with or without TGF-β1 in presence or absence of various CD109-based peptides as indicated in the figure legends. Cells were solubilized with 500 μl of lysis buffer (50 mM Tris, pH 7.5, 150 mM NaCl, 50 mM NaF, 50 mM β-glycerophosphate, 1 mM sodium orthovanadate, 1 mM dithiothreitol, 5 mM EDTA, pH 8.0, 1% Nonidet P-40, 10% glycerol, 10 μM phenylmethylsulfonyl fluoride, 200 μg/ml bovine serum albumin, 1 μg/ml leupeptin, […] soybean trypsin inhibitor, 10 μg/ml benzamide, and 2 μg/ml pepstatin) for 30 min at 4° C. with mild agitation. Cell lysates were collected and centrifuged for 10 min at 10,000×g. The supernatants were collected and protein concentrations were determined using the Bio-Rad protein assay kit. Lysates containing equivalent protein concentrations were mixed with 0.2 volume of 5× electrophoresis sample buffer containing 5% β-mercaptoethanol and boiled for 5 min. Samples were resolved on 7.5% SDS-polyacrylamide gels and transferred to nitrocellulose membranes. Membranes were blocked for 3 h in blocking buffer (30 mM Tris, pH 7.5, 150 mM NaCl, and 0.05% (w/v) Tween 20™ (Tris-buffered saline/Tween) containing 5% (w/v) skim milk powder). The blot was incubated overnight at 4° C. with a 1:1000 dilution of anti-PAI-1 antibody (BD Biosciences). Blots were washed with Tris-buffered saline/Tween and incubated for 45 min at room temperature with a 1:5000 dilution of secondary antibody conjugated to horseradish peroxidase (Pierce). Chemiluminescence detection of the immune complexes was performed using the ECL system (Amersham Biosciences) according to the manufacturer's instructions. The membranes were stripped and reprobed with an anti-GAPDH antibody to confirm equal protein loading.
A431 cells were treated without (lane 1) or with 100 pM of TGF-β1 (lanes 2-6) in the absence (lane 2) or presence of 10 nM of P11 (11 aa peptide, lane 3), P16 (16 aa peptide, lane 4), P16-1 (scrambled peptide of 16 aa, lane 5) or Tris buffer (buffer, lane 6) for 24 hrs. Cell lysates were analyzed by Western blot for PAI-1 ([…]) protein levels and normalized to GAPDH protein levels (loading control).
A431 squamous cell carcinoma cells were treated for 18 hours without (−) or with (+) 100 pM TGF-β1 in the presence or absence of Peptide X or P16. The peptides were dissolved in Tris buffer and left untreated or treated with 0.5% DMSO prior to addition to the cells. Cell lysates were analyzed by Western blot for PAI-1 ([…]) protein expression (top panel) and GAPDH served as a loading control (bottom panel).

[5] = 10 nM peptide, 100 pM TGF-β1, 18 hours (FIG. 6)
[6] = 10 nM or 5 nM peptide, 100 pM TGF-β1, 18 hours (FIG. 5)

Sequence: LDTNMGSRIYQEFEVT [Peptide X-3]
- formation of aggregates by size-exclusion chromatography [1]: formed aggregates
- Aggregation? [1]: Aggregated

Sequence: GSRIYQEFEVT [Peptide X-4]
- formation of aggregates by size-exclusion chromatography [1]: did not
- Aggregation? [1]: Not aggregated
- inhibition of TGF-β1-induced CAGA12-lux activity [2, 5]: did not

Sequence: ETWIWLDTNMGSRIYQEFEVT [Peptide P21]
- formation of aggregates by size-exclusion chromatography [1]: did not
- Aggregation? [1]: Not aggregated
- inhibition of TGF-β1-induced CAGA12-lux activity, peptide pre-treated with DMSO ([3]; 0.5% DMSO pre-treatment (FIG. 8)): not enhanced
- inhibition of TGF-β1-induced CAGA12-lux activity, peptide in Tris buffer left untreated ([3]; no DMSO (FIG. 8)): inhibited
- inhibition of TGF-β1-induced CAGA12-lux activity [2, 6]: inhibited

Sequence: ETWIWLDTNMG [Peptide P11]
- formation of aggregates by size-exclusion chromatography [1]: did not
- Aggregation? [1]: Not aggregated
- inhibition of TGF-β1-induced PAI-1 protein production [4]: not
- inhibition of TGF-β1-induced CAGA12-lux activity [2, 5]: did not

Sequence: WINMDTGQLIEQRYTS [Peptide P16-2, reference compound]
- formation of aggregates by size-exclusion chromatography [1]: did not
- Aggregation? [1]: Not aggregated
- inhibition of TGF-β1-induced CAGA12-lux activity [2, 6]: no inhibitory effect
- inhibition of TGF-β1-induced CAGA12-lux activity [2, 5]: no effect

Sequence: ILNTWMDSTQIGYRWE [Peptide P16-1, scrambled peptide of 16 aa, control, reference compound]
- inhibition of TGF-β1-induced PAI-1 protein production [4]: no effect
